The values below come from patent US20100261182A1.

Data set [1] addresses T1, 5-TAMRA-MpTPpYV-NH2 substrate peptide (bis-phosphorylated).
T1 chain: MTPYV

Data set [2] has as its target 5-TAMRA-MpTPpYV-NH2 substrate peptide (bis-phosphorylated). Description: cell-based or functional assay.
Data set [3] addresses CaMKII alpha isoform (about 50 kDa), phosphorylated at Thr286.
Data set [4] addresses CaMKII beta isoform (about 57 kDa), phosphorylated at Thr286.

B1: His-PPM1E (PPM1E phosphatase with an N-terminal His-tag, expressed in Sf9 cells) (protein)
chain: MAGCIPEEKTYRRFLELFLGEFRGPCGGGEPEPEPEPEPEPEPESEPEPEPELVEAEAAEASVEEPGEEAATVAATEEGDQEQDPEPEEEAAVEGEEEEEGAATAAAAPGHSAVPPPPPQLPPLPPLPRPLSERITREEVEGESLDLCLQQLYKYNCPSFLAAALARATSDEVLQSDLSAHYIPKETDGTEGTVEIETVKLARSVFSKLHEICCSWVKDFPLRRRPQLYYETSIHAIKNMRRKMEDKHVCIPDFNMLFNLEDQEEQAYFAVFDGHGGVDAAIYASIHLHVNLVRQEMFPHDPAEALCRAFRVTDERFVQKAARESLRCGTTGVVTFIRGNMLHVAWVGDSQVMLVRKGQAVELMKPHKPDREDEKQRIEALGGCVVWFGAWRVNGSLSVSRAIGDAEHKPYICGDADSASTVLDGTEDYLILACDGFYDTVNPDEAVKVVSDHLKENNGDSSMVAHKLVASARDAGSSDNITVIVVFLRDMNKAVNVSEESDWTENSFQGGQEDGGDDKENHGECKRPWPQHQCSAPADLGYDGRVDSFTDRTSLSPGSQINVLEDPGYLDLTQIEASKPHSAQFLLPVEMFGPGAPKKANLINELMMEKKSVQSSLPEWSGAGEFPTAFNLGSTGEQIYRMQSLSPVCSGLENEQFKSPGNRVSRLSHLRHHYSKKWHRFRFNPKFYSFLSAQEPSHKIGTSLSSLTGSGKRNRIRSSLPWRQNSWKGYSENMRKLRKTHDIPCPDLPWSYKIE
Turning to B1, in data set [1], the “polarization at a concentration of PPM1E of 33 nM” value is listed as “a polarization of about 147 mP (milli-Polarization) was measured” and the “polarization at a concentration of PPM1E of 0.8 µM” value is “the polarization decreased to about 123 mP”. In data set [2], this molecule returned an IC50 (EC50) of the PPM1E titration, decrease of polarization of 160 nM.

B2: Full length PPM1E (SEQ ID NO: 1) overexpressed in H4 neuroglioma cells and rat hippocampal primary neurons (protein)
chain: B1 chain
As to B2, in data set [3], the “dephosphorylation of pCaMKII alpha band (western blot)” value is given as “PPM1E phosphatase is dephosphorylating the beta isoform (57 kDa) as well as the alpha isoform (50 kDa) of CaMKII” and the “phosphorylation of CaMKII relative to wildtype HC neurons (western blot)” value is reported as “the phosphorylation of CaMKII is decreasing to 50% of the phosphorylation status of wildtype cells by increasing the level of PPM1E expression 12 times”. Besides, in data set [4], the “dephosphorylation of pCaMKII beta band (western blot)” value was “PPM1E phosphatase is dephosphorylating the beta isoform (57 kDa) as well as the alpha isoform (50 kDa) of CaMKII” and the “phosphorylation of CaMKII relative to wildtype HC neurons (western blot)” value is reported as “the phosphorylation of CaMKII is decreasing to 50% of the phosphorylation status of wildtype cells by increasing the level of PPM1E expression 12 times”.
